The source of these data is patent publication US20110059095A1 (Regeneron, published 2011).

Where no end group is shown, it is not given here. The star is where a group is joined. Biotin = O=C1N[C@H]2[C@H](CS[C@H]2CCCCC(=O)*)N1 Some results are limits rather than exact numbers.

For assay [1], the target named is T1, Peptide E (mouse PAR-2), N-terminal biotinylated (Mouse (Mus musculus), N-terminal biotin via G4S linker).
T1 construct: also called Peptide E N-Term
T1 peptide: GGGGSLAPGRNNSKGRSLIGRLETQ
The experiment in a line: peptide ELISA titration.

For assay [2], the target named is T2, Peptide G (rat PAR-2), unbiotinylated (Rat (Rattus norvegicus)).
T2 construct: also called Peptide G No Biotin
T2 peptide: GPNSKGRSLIGRLDTP
The experiment in a line: peptide ELISA titration. Background: In an ELISA, binding on a coated surface is turned into a signal by an enzyme label.

Assay [3] deals with T3, Peptide G (rat PAR-2), N-terminal biotinylated (Rat (Rattus norvegicus), N-terminal biotin via G4S linker).
T3 construct: also called Peptide G N-Term
T3 peptide: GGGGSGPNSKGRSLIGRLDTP
The experiment in a line: peptide ELISA titration.

Assay [4] concerns the target T4, Peptide G (rat PAR-2), C-terminal biotinylated (Rat (Rattus norvegicus), C-terminal biotin via G4S linker).
T4 construct: also called Peptide G C-Term
T4 peptide: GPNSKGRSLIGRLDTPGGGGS
Description: peptide ELISA titration.

In another assay the target is T5, Peptide I (dog PAR-2) (Dog (Canis familiaris)).
T5 peptide: GTNRTSKGRSLIGKTDSS
The experiment in a line: SPR, antibody captured. The method, then: (§1) Equilibrium dissociation constants (KD values) for antigen binding to selected purified PAR-2 antibodies were determined by surface kinetics using a real-time surface plasmon resonance biosensor assay. Antibody was captured on either a rabbit anti-mouse IgG polyclonal antibody (GE Healthcare, Piscataway, N.J.) surface or a goat anti-human IgG polyclonal antibody (Jackson Immuno Research Lab, West Grove, Pa.) surface created through direct amine chemical coupling to a BIACORE™ CM5 sensor chip to form a captured antibody surface. […] Antigen-antibody binding and dissociation were monitored in real time at room temperature. Kinetic analysis was performed to calculate KD and half-life of antigen/antibody complex dissociation (Table 10). For those antibodies where no T_{1/2} value is shown, steady state analysis was used to calculate the KD value. NB: no binding observed under current experimental conditions. ND: not determined.

Another assay addresses T6, Peptide H (rabbit PAR-2) (Rabbit (Oryctolagus cuniculus)).
T6 peptide: GTNKTSKGRSLIGRNTGS
Description: SPR, antibody captured. The method, then: as §1
A general note: In SPR one partner is held on a chip, and binding of the other changes the refractive index at the surface.

Assay [5] has as its target T2, Peptide G (rat PAR-2), unbiotinylated. The experiment in a line: SPR, antibody captured. The method, then: as §1
The target in assay [6] is T7, Peptide E (mouse PAR-2), unbiotinylated (Mouse (Mus musculus)).
T7 construct: also called Peptide E No Biotin
T7 peptide: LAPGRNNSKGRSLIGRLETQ
Description: peptide ELISA titration; ELISA titration, bivalent IgG on peptide-coated plate. On the procedure:
Anti-PAR-2 antibodies were tested for their ability to bind to the PAR-2 peptides. Various PAR-2 Peptides (Table 3) were coated onto 96-well plates at a concentration of 2 μg/ml and incubated overnight followed by blocking in a suitable blocking agent for one hour. […] Purified anti-PAR-2 antibodies were added to the plate coated with PAR-2 peptides to a final concentration ranging from 0.2 to 2.0 μg/ml and incubated for one hour at room temperature. Detection of bound antibodies was determined with Horse-Radish Peroxidase (HRP) conjugated anti-mouse or human IgG (Jackson Immuno Research Lab, West Grove, Pa.) and developed by standard colorimetric response using tetramethylbenzidine (TMB) substrate. Absorbance was read at OD₄₅₀ for 0.1 second.
In another experiment, selected anti-PAR-2 antibodies cloned onto human IgG4 were tested for binding to unbiotinylated and biotinylated forms of PAR-2 peptides (Peptides A, E, F and G; as described above). […] Absorbance values at 450 nm were analyzed using a sigmoidal dose-response model in GraphPad Prism (GraphPad Software, Inc., La Jolla, Calif.) and EC₅₀ values were reported (Table 9). EC₅₀ values are defined as the antibody concentration required to achieve 50% maximal binding to PAR-2 peptide.

Assay [7] addresses T8, Peptide M (human PAR-4), unbiotinylated (Human).
T8 peptide: ESGSTGGGDDSTPSILPAP
The experiment in a line: SPR, antibody captured.

Assay [8] addresses T9, Peptide K (human PAR-1), unbiotinylated (Human).
T9 peptide: ATNATLDPRSFLLRNPND
The experiment in a line: SPR, antibody captured.

The target of assay [9] is T10, Peptide A (human PAR-2), unbiotinylated (Human).
T10 construct: also called Peptide A No Biotin
T10 peptide: GTNRSSKGRSLIGKVDGT
The experiment in a line: SPR, antibody captured.

The target in assay [10] is T11, Peptide L (human PAR-3), unbiotinylated (Human).
T11 peptide: DTNNLAKPTLPIKTFRGA
The experiment in a line: SPR, antibody captured.

The target in assay [11] is T12, Peptide C (human PAR-2), N-terminal biotinylated (Human).
T12 construct: also called Peptide C N-Term
T12 peptide: Biotin-GGGGSSLIGKV
Description: SPR, peptide immobilized.

In assay [12] the target is T1, Peptide E (mouse PAR-2), N-terminal …. Description: SPR, peptide immobilized.
In assay [13] the target is T3, Peptide G (rat PAR-2), N-terminal …. Description: SPR, peptide immobilized.
Assay [14] deals with T13, C-terminal biotinylated human PAR-2 peptide SEQ ID NO:880 (Asp-43 to Ala) (human, not fully specified; C-terminal biotin (K-B)).
T13 construct: alanine-scan mutant
T13 peptide: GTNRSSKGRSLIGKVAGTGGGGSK
The experiment in a line: BLI Exp1. The method, then:
(§2) In order to more particularly identify the amino acids of PAR-2 with which the PAR-2 antibodies interact, an alanine scanning study was carried out using peptides comprising the activating PAR-2 protease cleavage site.
(§3) The ability of each peptide mutant to bind to PAR-2 antibodies was measured using biolayer interferometry (Octet Red; ForteBio). Each peptide (2.5 μg/ml) was captured on streptavidin coated biosensor tips (Octet SA sensor) for 10 seconds. To measure binding and dissociation between each peptide and PAR-2 antibody, the peptide-coated biosensors were contacted with 200 nM solutions of PAR-2 antibodies for 5 minutes (binding) followed by transfer to buffer with no antibody for 10 min (dissociation). […] The results are expressed as percent binding and percent T_{1/2} relative to WT peptide (Tables 24-28).

Assay [15] addresses T14, C-terminal biotinylated human PAR-2 peptide SEQ ID NO:876 (Ile-39 to Ala) (human, not fully specified; C-terminal biotin (K-B)).
T14 construct: alanine-scan mutant
T14 peptide: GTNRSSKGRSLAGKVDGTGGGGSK
The experiment in a line: BLI Exp1. On the procedure:
as §2, §3

Assay [16] concerns the target T15, C-terminal biotinylated human PAR-2 peptide SEQ ID NO:873 (Arg-36 to Ala) (human, not fully specified; C-terminal biotin (K-B)).
T15 construct: alanine-scan mutant
T15 peptide: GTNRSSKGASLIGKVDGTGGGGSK
The experiment in a line: BLI Exp1. On the procedure:
as §2, §3

B1: H4H583P (antibody, human IgG4, V domains shown)
VH: QVQLVESGGGVVQPGMSLRLSCTASGFTFRRYGMHWVRQAPGKGLEWVAVIWYDGSNKYYADSVKGRFTITRDNSKNTLYLQMNSLRAEDTAIYFCASEITIGDWFDPRGQGTLVTVSS
VL: AIQMTQSPSSLSASVGDRVTITCRASQGIRNDLGWFQQKPGKVPKLLIYAASTLHSGVPSRFSGSGFGTDFTLTISSLQPEDFATYYCLQDFNYPLTFGGGTKVEIK
notes: also called H1H583P variable regions
For orientation: EC50 means the concentration giving half of the maximal effect. The low end stands for higher potency in that assay, the high end for lower potency in that assay. Usually Kd stands for the concentration at which binding is half-saturated. A lower Kd goes with tighter binding. On to B1, for which the 50% effective concentration (EC50) in [1] worked out at 0.014 nM; in assay [2], 0.012 nM; in assay [3], 0.015 nM; in assay [4] it was 0.63 nM; in assay [6] it was 0.019 nM. For the same molecule, the Kd with Peptide I (dog PAR-2) is 320 nM; with Peptide H (rabbit PAR-2), 189 nM; in [5] it was 530 nM; in assay [9], 37.1 nM; in [12] it was 1.68 nM; in assay [13], 1.49 nM. In addition, the T1/2 with Peptide I (dog PAR-2) stood at 9.6 s; with Peptide H (rabbit PAR-2), 10.2 s; in assay [5], 4.2 s; in assay [9], 22.2 s; in assay [12] it was 660 s; in assay [13] it was 13 min. The binding result in assay [7], in assay [8], in assay [10] and in assay [11] was “no binding” in each case.

B2: H4H584P (antibody, human IgG4, V domains shown)
VH: QVQLVESGGGVVQPGRSLRLSCVASGFTFSRYGMHWVRQAPGKGLEWVVVISYDGINKYYADSVKGRFTISRDNSKNTVYLQMNSLRAEDTAVYYCAKGDFWSGYFDYWGQGTLVTVSS
VL: DIVMTQTPLSSPVTLGQPASISCRSSQSLVHSDGNTYLSWLHQRPGQPPRLLIYKISNRFSGVPDRFSGSGAGTDFTLQISRVEAEDVGIYYCMQATQFPTFGGGTKVEIK
notes: also called H1H584P variable regions
On to B2, for which the EC50 is 0.511 nM in assay [1]; 0.013 nM in [2]; 0.012 nM in assay [3]; 0.015 nM in [4]; 2.15 nM in assay [6]. For the same molecule, the binding result (with Peptide H (rabbit PAR-2); in [7]; in assay [8]; in assay [10]; in assay [11]) was “no binding” in each case. For the same molecule, the equilibrium dissociation constant (Kd) is 246 nM in assay [5], 22 nM in [9], over 100 nM in assay [12] and 1.39 nM in assay [13]. In addition, the T1/2 in [5] is 7.8 s; in assay [9], 43.8 s; in [13], 15 min.

B3: H4H579P (antibody, human IgG4, V domains shown)
VH: QVQLVESGGGVVQPGRSLRLSCVASGFTFSRYGMHWVRQAPGKGLEWLIVISYDGINKYYADSVKGRFTISRDNSKNTVYLQMNSLRAEDTGVYYCAKGDFWSGYFDYWGQGTLVTVSS
VL: DIVMTQTPLSSPVTLGQPASISCRSSQSLVHSDGNTYLSWLHQRPGQPPRLLIYKISNRFSGVPDRFSGSGAGTDFTLQISRVEAEDVGIYYCMQGTQFPTFGGGTKVEIK
notes: also called H1H579P variable regions
Regarding B3, the EC50 in assay [1] was 0.54 nM; in assay [2], 0.055 nM; in assay [3], 0.059 nM; in assay [4] it was 0.044 nM. The Kd with Peptide I (dog PAR-2) is 311 nM; in [5], 134 nM; in [9], 15 nM; in assay [12] it was 3.4 nM; in assay [13], 1.16 nM. Further, the T1/2 with Peptide I (dog PAR-2) came to 15.6 s; in [5] it was 27 s; in assay [9] it was 240 s; in assay [12] it was 1200 s; in assay [13] it was 38 min. Also, the binding result in assay [7], in assay [8], in assay [10] and in [11] was “no binding” in each case.

B4: H4H585P (antibody, human IgG4, V domains shown)
VH: QVQLVESGGGVVQPGRSLRLSCVASGFTFSRYGMHWVRQAPGKGLEWLIVISYDGINKYYADSVKGRFTISRDNSKNTVYLQMNSLRAEDTAVYYCAKGDFWSGYFDYWGQGTLVTVSS
VL: DIVMTQTPLSSPVTLGQPASISCRSSQSLVHSDGNTYLSWLHQRPGQPPRLLIYKISNRFSGVPDRFSGSGAGTDFTLQISRVEAEDVGIYYCMQGTQFPTFGGGTKVEIK
notes: also called H1H585P variable regions
On to B4, for which the EC50 is 0.189 nM in assay [1], 0.018 nM in assay [2], 0.017 nM in assay [3] and 0.021 nM in [4]. The Kd with Peptide I (dog PAR-2) is 372 nM; in assay [5] it was 162 nM; in assay [9], 8.78 nM; in assay [12], over 100 nM; in assay [13] it was 1.36 nM. Moreover, the T1/2 in the assay with Peptide I (dog PAR-2) is 11.4 s; in assay [5], 19.8 s; in assay [9], 222 s; in assay [13], 35 min.

B5: H4H588N (antibody, human IgG4, V domains shown)
VH: EVQLLESGGGLVQPGGSLRLSCAASGFTFSSYAMTWVRQAPGKGLYWVSAISGGRGSAYYADSVKGRFTISRDNSKNTLYLQMNSLRAEDTAVYYCAKEGDSGYDLAYWGRGTLVTVSS
VL: DIQMTQSPSSLSASVGDRVTITCRARQGISNNLAWLQQKPGKAPKSLIYAASSLQSGIPSKFSGSGSGTYFTLTISSLQPEDFATYYCQQYKSSPLTFGGGTKVEIK
notes: also called H2M588N variable regions
As to B5, the binding result (with Peptide I (dog PAR-2); with Peptide H (rabbit PAR-2); in assay [7]; in assay [8]; in assay [10]; in [11]) was “no binding” throughout. In addition, the “% Rel Binding” value was 35% in [14], 92% in [15] and 208% in assay [16]. Also, the “% Rel T1/2” value is 4% in [14], 36% in assay [15] and 100% in [16].
